Measurements reported in patent publication US11351270B2, “Junctophilin-2 fragments and uses therefor” (University of Iowa Research Foundation, priority 2016, dated 2022).

What was measured:
TATA box DNA sequences = assay: Gel shift assay with TATA box sequences; assay type: binding; settings: GST-purified protein; cMyc or CMV promoter sequences
Excerpt: FIGS. 11A-H. JP2NT is a TATA-box binding protein enriched at transcription start site (TSS) and interacts with basic transcription machinery. […] C) 293T cells were transfected with HA-tagged JP2NT, followed by crosslinking-reversal immunoprecipitation with anti-HA and immunoblotting with anti-polymerase II (Rpb1) or anti-TATA box binding protein (TBP). D-H) JP2NT binds to TATA box DNA sequences in vitro. D-E) Gel shift assays of GST-purified JP2NT binding to WT (D). or mutated TATA box-containing sequences (E) derived from the cMyc promoter. F) Summary of the results of gel shift assays with various of TATA box variants or mutants. Mutation of the core TATA sequences abolished the interaction with GST-JP2NT. G) Deletion of the ARR, but not the N-terminal MORN domains, eliminated JP2NT binding to the TATA box sequence. H) The peptide JP2^331-405 containing the ARR specifically binds to WT TATA box sequence.
(§1) TBP specifically binds to TATA boxes, eukaryotic core cis-regulatory elements localized at transcription start site. […] This interaction was abrogated by mutation of the TATA box elements (FIGS. 11E&G and 17B). It was concluded that JP2NT is a DNA binding protein, binding to consensus TATA box represented as TATAA(A/T) or TATATA (FIG. 11F).

[1] = system: MEF2C Response Element (MRE) from the desmin enhancer; assay: Gel shift assay with MEF2 response element; assay type: binding; settings: purified protein
Excerpt: FIGS. 12A-E. JP2NT represses MEF2-mediated transcription by competing for the MEF2 Response Element (MRE). A) Enrichment of MEF2 binding motifs in ChIP-seq dataset. B) Gel shift assay of JP2NT binding to a desmin promoter-derived DNA sequence containing a WT or mutated MRE in vitro. C) Co-immunoprecipitation of HA-tagged JP2NT binding to MEF2C or Histone H3. D) & E) MEF2 activity assays in 293T cells co-transfected with luciferase under the control of an MRE, MEF2C and WT JP2NT (D) or a mutant lacking the ARR (E, JP2NT^ΔARR). n≥3 independent batches of cells; in each batch of experiments, 3 replicates were performed for each transfection; **p<0.01 vs. Ad-Empty.
The MEF2 family, master regulators of hypertrophic genes in cardiomyocytes, binds to the A/T enriched consensus sequence (C/TTA(A/T)4TA G/A), which shares the same core sequence with TATA box. Thus, it was hypothesized that JP2NT directly interacts with MEF2 binding sites.

[2] = system: RNA polymerase II (RPB1) and TATA-box binding protein (TBP); assay: Crosslinking-reversal co-IP in 293T cells; settings: JP2NT-transfected 293T cells
Protocol: Cells were first crosslinked by 1% formaldehyde for 10 minutes at RT before quenching by 0.75 M Tris. After washing with PBS, cells were lysized using RIPA buffer and sonication was applied to breakdown chromatin and shear DNA. Anti-HA resin (sigma) was used to pull down HA tagged protein complexes. The pulled-down protein complexes were boiled at 95° C. for 10 minutes to reverse the formaldehyde induced crosslinking between proteins. Western blot was used to assay the presence of bait and prey proteins.
as §1

[3] = system: cultured adult murine cardiomyocytes; assay: RT-qPCR in cultured cardiomyocytes; assay type: cell-based, mouse; settings: compared with Ad-Empty infected cells
Protocol: RNA of cultured cardiomyocytes was extracted using RNAeasy (Qiagene). Myocardium RNA was extracted using Trizol. Total RNA was treated with DNASE-I to eliminate genomic DNA and then cleaned using RNA cleanup Kit (Qiagene).
Superscript II were used for Reverse Transcription of mRNA. A QUANT STUDIO 3 real-time PCR machine was used to run qPCR. The primers used in RT-PCR were: […]

[4] = system: cardiac transcription profile; assay: RNA-Seq of myocardium of JP2NT-OE mice; assay type: in vivo, mouse
Protocol: Illumina TruSeq Stranded mRNA Library Prep Kit was used to prepare the sequencing library for myocardium samples. Sequencing was performed by Illumina HiSeq 2500 platform (2×125 bp paired-end). Kallisto (0.42.5) software (Bray et al., 2016) was used to quantify transcript abundance of mouse transcriptome (Grcm38). Sleuth (0.28.1) software (Pimentel et al., 2018) was used to investigate the differential expression of transcripts between groups (the cutoff of significance was p value<0.01).

B1: JP2NT: shorter form of Junctophilin-2 including the first 565 amino acids of N-terminus of JP2 (protein, UniProt Q9BR39 1-565, looked up, fragment)
chain: MSGGRFDFDDGGAYCGGWEGGKAHGHGLCTGPKGQGEYSGSWNFGFEVAGVYTWPSGNTFEGYWSQGKRHGLGIETKGRWLYKGEWTHGFKGRYGIRQSSSSGAKYEGTWNNGLQDGYGTETYADGGTYQGQFTNGMRHGYGVRQSVPYGMAVVVRSPLRTSLSSLRSEHSNGTVAPDSPASPASDGPALPSPAIPRGGFALSLLANAEAAARAPKGGGLFQRGALLGKLRRAESRTSVGSQRSRVSFLKSDLSSGASDAASTASLGEAAEGADEAAPFEADIDATTTETYMGEWKNDKRSGFGVSERSSGLRYEGEWLDNLRHGYGCTTLPDGHREEGKYRHNVLVKDTKRRMLQLKSNKVRQKVEHSVEGAQRAAAIARQKAEIAASRTSHAKAKAEAAEQAALAANQESNIARTLARELAPDFYQPGPEYQKRRLLQEILENSESLLEPPDRGAGAAGLPQPPRESPQLHERETPRPEGGSPSPAGTPPQPKRPRPGVSKDGLLSPGAWNGEPSGEGSRSVTPSEGAGRRSPARPATERMAIEALQAPPAPSREPEVALYQG
modifications: GST or adenoviral forms
notes: shorter form of Junctophilin-2 including the first 565 amino acids of N-terminus of JP2
binding to TATA box (TATA box DNA sequences): directly binds
interaction with MEF2C Response Element (MRE) [1]: interacts
association with RNA polymerase II (RPB1) and TBP [2]: associates
cardiac hypertrophy markers ANP and BNP (mRNA) [3]: not altered
mRNA levels of KLF4, KLF6, Myc, TGFβR1, NFKBIA, FOXO1, PI3KR1 et al [3]: significantly decreased
ERK, TGF-β, CREB and NFκ-B signaling pathways (IPA) ([4]; TAB): predicted inhibition
known genes of negatively influenced transcripts ([4]; TAB): 481 genes
known genes of positively influenced transcripts ([4]; TAB): 476 genes
transcripts negatively influenced ([4]; TAB): 540 transcripts
transcripts positively influenced ([4]; TAB): 542 transcripts
transcripts significantly different in response to cardiac stress ([4]; TAB, linear regression model, p<0.01): 1082 transcripts
known genes from which the significantly different transcripts derive ([4]; TAB, p<0.01): 954 genes
significantly altered genes (p<0.01) at baseline ([4]; baseline, relative to control littermates): 49 genes
